Experimental findings from article PMC11001860, “The assembly platform FimD is required to obtain the most stable quaternary structure of type 1 pili” (Nature Communications, 2024) are described below.

Series [1] concerns the molecule itself. The series is described as follows: cryo-EM structure; in vitro-assembled type 1 pilus rods, helical reconstruction, 2.69 Å; sample diluted to 100 µM in ddH2O.
In series [2] the target is T1, FimC, periplasmic chaperone of type 1 pili (Escherichia coli, UniProt P31697 37-241).
T1 construct: FimC, periplasmic chaperone of type 1 pili, Escherichia coli; source: E. coli BL21(DE3) with pFimC-cyt, purified (SP-Sepharose, Superdex 75 SEC)
T1 sequence: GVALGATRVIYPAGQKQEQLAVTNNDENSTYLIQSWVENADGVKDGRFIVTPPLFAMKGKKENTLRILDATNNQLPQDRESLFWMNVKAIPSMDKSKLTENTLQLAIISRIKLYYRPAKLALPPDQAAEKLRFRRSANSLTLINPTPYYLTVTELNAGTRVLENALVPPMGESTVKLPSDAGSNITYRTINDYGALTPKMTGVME
The series is described as follows: SEC; complex formed by rapid dilution of unfolded, disulfide-intact FimA into FimC (15 min, 23 °C), then Sephadex G25, Source 30S cation exchange and Superdex 75 in 20 mM Tris-HCl pH 8.0, 50 mM NaCl. Particulars: both partners purified.

The next series deals with T2, FimChis (Escherichia coli, UniProt P31697 37-241).
T2 construct: FimC, periplasmic chaperone of type 1 pili, Escherichia coli; source: E. coli BL21(DE3) with pFimChis-cyt, purified (SP-Sepharose, Superdex 75 SEC)
T2 sequence (looked up): T1 sequence
Described as above. As to conditions: both partners purified.

Series [3] concerns the molecule itself. The series is described as follows: negative-stain EM; P pilus rods assembled in vitro from 50 µM PapA-PapDhis complex, 20 mM Tris-HCl pH 8.0, 50 mM NaCl, 37 °C, 7 days.

B1: FimA, main structural subunit of the type 1 pilus rod (recombinant, assembled in vitro) (natural protein)
chain: AATTVNGGTVHFKGEVVNAACAVDAGSVDQTVQLGQVRTASLAQEGATSSAVGFNIQLNDCDTNVASKAAVAFLGTAIDAGHTNVLALQSSAAGSATNVGVQILDRTGAALTLDGATFSSETTLNNGTNTIPFQARYFATGAATPGAANADATFKVQYQ
notes: FimA, main structural subunit of the type 1 pilus rod of Escherichia coli; printed residue numbers run to Q159; The same FimA was used for rods assembled from FimA monomers, from FimA-FimC complexes and with FimD (FimD-cat); also called FimA monomers; self-complemented FimA
For B1, the binding result (in series [1]; in series [2]; in the series with FimChis) was “binds” each time.

B2: PapA, main structural subunit of the P pilus rod (co-expressed with PapDhis) (natural protein)
chain: APTIPQGQGKVTFNGTVVDAPCSISQKSADQSIDFGQLSKSFLEAGGVSKPMDLDIELVNCDITAFKGGNGAKKGTVKLAFTGPIVNGHSDELDTNGGTGTAIVVQGAGKNVVFDGSEGDANTLKDGENVLHYTAVVKKSSAVGAAVTEGAFSAVANFNLTYQ
notes: PapA, main structural subunit of the P pilus rod, Escherichia coli; also called in vitro-assembled P pili; source: E. coli HM125 with PapDA (pTRC99a), periplasmic extract; purified as a complex with PapDhis (HisTrap, Source 30S, SEC)
Regarding B2, in series [3], the binding result was “binds”.
